Measurements from patent US5932432.

Tests used:
[1] = biological target: yeast RAS1 protein with the carboxy-terminal sequence CAIL (yeast) (UniProt P01119)
[2] = biological target: yeast RAS1 protein with the carboxy-terminal sequence CAIM (yeast) (UniProt P01119)

lowest protein concentration detected by radiolabeling protein blots with [3H]FPP (in vitro farnesylation, fluorography) [1]: < 12
lowest protein concentration detected by radiolabeling protein blots with [3H]FPP (in vitro farnesylation, fluorography) [2]: 0.12 mmol m^-2
Substance: farnesyl:protein transferase (FTase) present in a tobacco protein extract (enzyme)
